Data: publication PMC3367397 (Nature, 2012)

Molecular target: T1, Angptl2-FLAG (human, UniProt Q9UKU9 23-493)
T1 sequence (looked up): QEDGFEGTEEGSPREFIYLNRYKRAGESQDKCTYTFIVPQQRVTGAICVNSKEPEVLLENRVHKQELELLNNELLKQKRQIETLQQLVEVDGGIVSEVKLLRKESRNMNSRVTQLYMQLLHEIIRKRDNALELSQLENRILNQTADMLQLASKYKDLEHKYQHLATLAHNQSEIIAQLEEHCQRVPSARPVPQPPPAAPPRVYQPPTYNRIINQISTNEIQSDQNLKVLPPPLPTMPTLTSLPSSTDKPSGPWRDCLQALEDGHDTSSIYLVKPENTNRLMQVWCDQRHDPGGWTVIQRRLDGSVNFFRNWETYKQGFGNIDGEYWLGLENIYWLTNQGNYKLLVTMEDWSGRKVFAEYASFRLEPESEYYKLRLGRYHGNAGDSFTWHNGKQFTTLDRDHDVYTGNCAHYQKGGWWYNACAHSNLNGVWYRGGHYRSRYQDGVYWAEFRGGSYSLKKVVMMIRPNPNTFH
Test: co-IP

binding result: binds
B1: LILRB2 extracellular domain (ECD) fused to human IgG-Fc (Fc fusion, UniProt Q8N423 22-460, looked up)
chain: QTGTIPKPTLWAEPDSVITQGSPVTLSCQGSLEAQEYRLYREKKSASWITRIRPELVKNGQFHIPSITWEHTGRYGCQYYSRARWSELSDPLVLVMTGAYPKPTLSAQPSPVVTSGGRVTLQCESQVAFGGFILCKEGEDEHPQCLNSQPHARGSSRAIFSVGPVSPNRRWSHRCYGYDLNSPYVWSSPSDLLELLVPGVSKKPSLSVQPGPVMAPGESLTLQCVSDVGYDRFVLYKEGERDLRQLPGRQPQAGLSQANFTLGPVSRSYGGQYRCYGAHNLSSECSAPSDPLDILITGQIRGTPFISVQPGPTVASGENVTLLCQSWRQFHTFLLTKAGAADAPLRLRSIHEYPKYQAEFPMSPVTSAHAGTYRCYGSLNSDPYLLSHPSEPLELVVSGPSMGSSPPPTGPISTPGPEDQPLTPTGSDPQSGLGRHLGV
